Test [1] concerns the target T1, Extracellular IL-6R (interleukin-6 receptor) (UniProt P08887 20-365).
T1 construct: also called soluble extracellular IL-6R; source: bought: PeproTech
T1 sequence: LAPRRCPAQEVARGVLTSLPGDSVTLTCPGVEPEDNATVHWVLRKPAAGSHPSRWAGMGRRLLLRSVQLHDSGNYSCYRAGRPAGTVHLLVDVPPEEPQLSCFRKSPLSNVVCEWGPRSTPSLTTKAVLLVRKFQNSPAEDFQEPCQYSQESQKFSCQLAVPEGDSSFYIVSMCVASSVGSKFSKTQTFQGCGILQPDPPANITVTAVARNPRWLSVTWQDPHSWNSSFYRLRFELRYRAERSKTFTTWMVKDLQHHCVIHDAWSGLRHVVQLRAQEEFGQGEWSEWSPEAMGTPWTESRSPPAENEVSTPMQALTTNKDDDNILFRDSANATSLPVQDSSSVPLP
Put plainly: ELISA; competitive inhibition: 45 nM biotinylated IL-6 and 1 nM-2 μM protein/peptide with IL-6R coated beads (350 nM) in PBS-BSA, 25°C, 1 h; detected with SA-HRP. The conditions noted are these: both partners purified.

In test [2] the target is T1, Extracellular IL-6R (interleukin-6 …). Put plainly: ELISA; […] (200 nM), 30 min; […]. To be noted: both partners purified.
Test [3] shares this target. The experiment in a line: cell-based or functional assay.
The target in test [4] is Extracellular IL-6R (interleukin-6 receptor) (UniProt P08887).

Bridges are numbered along the chain shown (N, C = ends). Where no end group is shown, it is not given here.

The record followed here is publication PMC3024951 (Molecular Brain, 2011).

B1: R10-15 (designed binder)
chain: LVCYQLLACRPGTLETCPDDFTCVATRHTLGHNLTQYCSHAYAIPACETPASCCQTDKCNG
The molecule B1 came in with an IC50 in test [1] of 102 ± 13 nM. Besides, binding in test [2] was put at a Kd of 115 ± 9 nM.

B2: R10-13 (designed binder)
chain: LVCYQLLACRPGTLETCPDDFTCVATRHTLGHNLTQYCSHAHAIPTPRARTGCCQTDKCNG
In test [1], B2 had an IC50 of 113 ± 7 nM. Further, in test [2], the Kd was 48 ± 8 nM. Also, in test [3], the “IC50, inhibition of the IL-6 dependent proliferation of DS-1 cells (IL-6 with IL-6R)” value was determined as 1.4 µM.

In test [4], LVCYAPLPYTPGTLETGPDDFTCV (disulfide 3-23) [14-L1] displayed an EC50 (ED50), proliferation of DS-1 cells in the absence of IL-6 of 0.03 µM.
